Data reported in paper doi:10.1101/2025.06.04.657969, “Complex rheology of condensin in entangled DNA”.

Legend:
[1] = target: T1, condensin hinge (Smc2/Smc4 hinge heterodimer) (Saccharomyces cerevisiae, UniProt P38989;Q12267 396-792;555-951); test: EMSA; 10 nM DNA; 5 mM MgCl2; Fig. 2c legend gives 0.2-0.3 uM and a 25 bp oligo; EMSA: 50 mM Tris-HCl pH 7.5, 50 mM KCl, 125 mM NaCl, 5 mM MgCl2, 5% glycerol, 1 mM DTT, 10 min on ice, gel at 4 C; FP: 25 mM Tris-HCl pH 7.5, 100 mM NaCl, 5 mM; settings: protein: recombinant; tags: N-terminal His6-TEV on Smc2; Smc4 untagged; copies: 1;1; label: 5' 6-FAM on strand 1; blunt
T1 sequence 1: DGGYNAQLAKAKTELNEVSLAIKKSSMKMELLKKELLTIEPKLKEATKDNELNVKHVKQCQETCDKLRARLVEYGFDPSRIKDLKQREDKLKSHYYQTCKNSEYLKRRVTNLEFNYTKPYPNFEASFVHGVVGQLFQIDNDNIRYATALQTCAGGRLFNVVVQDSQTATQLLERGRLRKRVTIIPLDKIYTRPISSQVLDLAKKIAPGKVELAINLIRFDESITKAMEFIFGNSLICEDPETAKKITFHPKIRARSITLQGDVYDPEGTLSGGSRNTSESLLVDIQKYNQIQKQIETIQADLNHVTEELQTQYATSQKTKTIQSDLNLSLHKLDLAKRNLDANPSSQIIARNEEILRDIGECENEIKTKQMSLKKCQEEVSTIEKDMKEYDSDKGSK
T1 sequence 2: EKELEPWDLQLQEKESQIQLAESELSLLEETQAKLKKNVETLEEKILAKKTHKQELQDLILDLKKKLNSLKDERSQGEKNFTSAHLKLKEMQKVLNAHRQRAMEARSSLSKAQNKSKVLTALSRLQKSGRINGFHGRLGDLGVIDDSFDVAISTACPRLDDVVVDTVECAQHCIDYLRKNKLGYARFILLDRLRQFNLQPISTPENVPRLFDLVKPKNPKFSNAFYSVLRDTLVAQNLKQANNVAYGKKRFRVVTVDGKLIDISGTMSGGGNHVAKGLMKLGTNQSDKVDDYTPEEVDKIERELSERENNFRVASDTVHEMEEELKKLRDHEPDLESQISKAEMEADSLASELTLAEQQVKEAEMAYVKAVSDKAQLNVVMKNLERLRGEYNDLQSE

[2] = target: T1, condensin hinge (Smc2/Smc4 hinge …); test: fluorescence polarization; 20 nM DNA; 5 mM MgCl2; EMSA: 50 mM Tris-HCl pH 7.5, 50 mM KCl, 125 mM NaCl, 5 mM MgCl2, 5% glycerol, 1 mM DTT, 10 min on ice, gel at 4 C; FP: 25 mM Tris-HCl pH 7.5, 100 mM NaCl, 5 mM; settings: protein: recombinant; tags: N-terminal His6-TEV on Smc2; Smc4 untagged; copies: 1;1; label: 5' 6-FAM on strand 1; blunt

B1: 6-FAM 50-bp dsDNA (dsDNA)
DNA 1: GGATACGTAACAACGCTTATGCATCGCCGCCGCTACATCCCTGAGCTGAC
DNA 2: GTCAGCTCAGGGATGTAGCGGCGGCGATGCATAAGCGTTGTTACGTATCC
Kd [1]: ~141 nM
Kd [2]: ~700 nM
